These results are taken from patent publication US20050049402A1 (Amgen, published 2005).

Usually Kd stands for a measure of binding affinity in units of concentration. For orientation: koff means a measure of how fast the partners let go of each other. By kon is commonly meant a measure of how fast the partners come together. A word on the EC50 (read off the curve): it is the concentration at which the effect is half-maximal.

Experiment [1] concerns the target T1, human TNFα (Tumor Necrosis Factor-alpha), soluble (human, UniProt P01375 77-233).
T1 construct: Recombinant (R&D 210-TA/CF) in screens; biotinylated in the limited antigen assay; also called hTNFα; H-TNFα
Kind of experiment: KinExA, TNFα counted as one trimer. On the procedure: (§1) The kinetic measurements of the anti-TNFα antibodies were evaluated using KinExA® and BIACORE® technologies. The KinExA® method involves solution-based determination of formal affinity measurements at equilibrium. To measure the binding kinetics of each human anti-TNFα antibody, two experiments in replicates of three were performed. In both experiments a known concentration of antigen was titrated and a different antibody concentration was added to each antigen titration and allowed to reach binding equilibrium. […] The results were analyzed by dual curve analysis. […] In addition, to negate the possibility of avidity effects, Fab fragments were generated by papain cleavage and the kinetic analysis was repeated (see Table 24).

Experiment [2] deals with T2, cynomolgus macaque TNFα (KinExA) (cynomolgus macaque, UniProt P79337 77-233, limits assumed).
T2 construct: also called monkey TNFα
Description: KinExA, TNFα as a monomer. The protocol: as §1
(§2) The KinExA method was also used to measure the Kd describing this binding affinity.
In general terms: In KinExA the mixture passes briefly over coated beads that capture the unbound partner.

Experiment [3] addresses T3, H/M HincII chimeric TNFα (human 1-91, murine 92-157) (human; mouse).
T3 construct: Murine range printed 92-157 (human-aligned); also called Hu/M Hin C l1
T3 chain: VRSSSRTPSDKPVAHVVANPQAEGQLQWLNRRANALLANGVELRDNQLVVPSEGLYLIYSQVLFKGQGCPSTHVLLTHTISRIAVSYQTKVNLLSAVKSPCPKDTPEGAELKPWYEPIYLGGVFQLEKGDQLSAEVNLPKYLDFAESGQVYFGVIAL
Kind of experiment: ELISA on chimeric/mutant TNFα. The text has this:
(§3) In order to define the binding site for different antibodies, a number of residues of hTNFα were mutated using site directed mutagenesis. A panel of antibodies was screened for binding by an ELISA assay. […] Histidine at position 73 was deleted, an example is illustrated in Table 19.
(In general: An ELISA detects its analyte on a solid surface through an enzyme-linked reagent.)

Experiment [4] deals with T4, H/M PvuII chimeric TNFα (human 1-125, murine 126-157) (human; mouse).
T4 construct: also called Hu/M PVu11
T4 chain: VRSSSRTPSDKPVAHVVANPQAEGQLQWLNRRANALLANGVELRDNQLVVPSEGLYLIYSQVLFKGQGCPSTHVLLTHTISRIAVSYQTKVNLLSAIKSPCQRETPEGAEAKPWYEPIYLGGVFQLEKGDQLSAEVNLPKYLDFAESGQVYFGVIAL
Kind of experiment: ELISA on chimeric/mutant TNFα.
Source text: as §3

Experiment [5] concerns the target T5, H/M BglI chimeric TNFα (human 1-36, murine 37-157) (human; mouse, UniProt P06804 81-235).
T5 construct: Murine range is printed as 37-157 in human-aligned numbering; also called H/MBgl1; Hu/MBgl1
T5 chain: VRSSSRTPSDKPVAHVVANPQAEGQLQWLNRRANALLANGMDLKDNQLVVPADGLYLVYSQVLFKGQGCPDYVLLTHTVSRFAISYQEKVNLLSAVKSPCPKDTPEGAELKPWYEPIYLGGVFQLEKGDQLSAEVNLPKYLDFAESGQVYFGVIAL
Kind of experiment: ELISA on chimeric/mutant TNFα.
Source text: as §3

Another experiment addresses human TNFα R31Q mutant (human, UniProt P01375 77-233). Description: ELISA on chimeric/mutant TNFα.
Source text: as §3

The target in another experiment is human TNFα R131Q mutant (human, UniProt P01375 77-233). Description: ELISA on chimeric/mutant TNFα.
Source text: as §3

The target of experiment [6] is transmembrane mutant TNFα expressed on the surface of CHO cells (UniProt P01375 1-233). Kind of experiment: cell-based or functional assay.
transmembrane mutant TNFα expressed on the surface of CHO cells, sequence (P01375 whole entry, change not shown, form in doubt): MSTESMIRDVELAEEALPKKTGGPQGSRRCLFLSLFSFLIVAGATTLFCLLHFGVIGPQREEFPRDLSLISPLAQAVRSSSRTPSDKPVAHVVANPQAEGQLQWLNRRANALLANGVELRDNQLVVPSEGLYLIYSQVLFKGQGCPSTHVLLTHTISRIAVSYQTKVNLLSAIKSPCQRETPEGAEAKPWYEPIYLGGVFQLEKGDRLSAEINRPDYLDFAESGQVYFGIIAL
The target of experiment [7] is T1, human TNFα (Tumor Necrosis …). Kind of experiment: BIACORE, average N = 5. A general note: SPR reads the build-up and loss of mass on a sensor chip optically.
For experiment [8] the target is unchanged. Description: cell-based or functional assay.
The next experiment deals with T6, human GST-TNFα (human, UniProt P01375 77-233).
T6 construct: also called E. coli expressed soluble human TNF; not shown: GST fusion partner
Description: ELISA, plate coated with 0.5 µg/ml human GST-TNFα, HRP goat anti-human IgG detection. The protocol:
(§4) Anti-TNFα antibodies were also tested for their ability to bind to soluble recombinant TNFα. Human and monkey (cynomolgous macaque) TNFα were expressed in E. coli as fusion proteins with GST. Binding was assessed by ELISA. […] Bound antibody was detected using an HRP-conjugated goat anti-human IgG antibody.

For experiment [9], the target named is T2, cynomolgus macaque TNFα (KinExA). Description: KinExA. The protocol:
as §1, §2

The target in experiment [10] is T1, human TNFα (Tumor Necrosis …). Description: cell-based or functional assay. The source holds these as a separate data set.
Experiment [11] has the same target. Description: KinExA, TNFα counted as three monomers. The protocol:
as §1

The target in the next experiment is T7, mouse TNFα (mouse, UniProt P06804 80-235).
T7 construct: also called M TNFα; murine TNF
T7 sequence: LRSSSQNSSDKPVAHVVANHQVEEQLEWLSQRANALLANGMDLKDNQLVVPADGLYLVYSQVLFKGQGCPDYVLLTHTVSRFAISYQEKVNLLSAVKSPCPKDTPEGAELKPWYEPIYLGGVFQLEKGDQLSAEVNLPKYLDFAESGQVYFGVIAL
Kind of experiment: binding to chimeric TNF proteins.

Experiment [12] deals with T1, human TNFα (Tumor Necrosis …). Description: cell-based or functional assay. The source holds these as a separate data set.
The target is the same in experiment [13]. Description: BIACORE, average.
The target of experiment [14] is T8, monkey (cynomolgous macaque) GST-TNFα (cynomolgous macaque, UniProt P79337 77-233).
T8 construct: also called E. coli expressed soluble cynomolgous macaque monkey TNF; monkey TNFα; not shown: GST fusion partner
Kind of experiment: ELISA, plate coated with 2 µg/ml monkey (cynomolgus macaque) GST-TNFα, HRP goat anti-human IgG detection. The protocol: as §4

human TNFα R31Q mutant, sequence (P01375 77-233 R107Q): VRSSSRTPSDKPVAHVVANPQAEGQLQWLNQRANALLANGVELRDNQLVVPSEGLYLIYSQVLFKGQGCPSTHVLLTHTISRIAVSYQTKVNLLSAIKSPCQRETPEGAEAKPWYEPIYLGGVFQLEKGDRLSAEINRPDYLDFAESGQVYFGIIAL

B1: 299v2 (antibody, human IgG1, V domains shown)
VH: QVQLVESGGGVVQPGRSLRLSCAASGFTFSSYDMHWVRQAPGKGLEWVAVIWSDGSIKYYADSVKGRFTISRDNSKNTLYLQMNSLRAEDTAVYYCAREVESAMGGFYYNGMDVWGQGTTVTVSS
VL: DIQMTQSPSSLSASVGDRVTITCRASQGIRIDLGWYQQKPGKAPKRLIYAASTLQSGVPSRFSGSGSGTEFIFTISSLQPEDFASYYCLQHKSYPLTFGGGTKVEIK
notes: XENOMAX derived, recombinant human IgG1 kappa; also called 299v2Ab; SC299V2
On to B1, for which the Kd in [1] amounted to 0.00107 nM; in [2], 0.626 nM; in experiment [11] it was 0.0032 nM; in experiment [13] it was 0.0057 nM. The binding result in [3] is reported as “binds”; in experiment [4], “binds”; in experiment [5] it was “binds”; with human TNFα R31Q mutant, “no binding”; in the experiment with human TNFα R131Q mutant, “binds”; in the experiment with mouse TNFα it was “no binding”. Moreover, the “ADCC (%)” value in experiment [6] is 16%. Moreover, the “CDC (%)” value in experiment [6] amounted to 9%. Besides, in experiment [7], the off-rate (koff) was determined as 1.03e-05 s⁻¹. Moreover, the kon in experiment [7] worked out at 2.16e+06 M⁻¹ s⁻¹. The “IC50 1 hr Pre-incubation, TNF induced apoptosis in MCF-7 cells” value in experiment [8] worked out at 0.0186 nM. Further, in [8], the “IC50 18 hr Pre-incubation, TNF induced apoptosis in MCF-7 cells” value worked out at 0.0016 nM. The “EC50 (read off the curve)” value (with human GST-TNFα; in [14]) was ~4 ng/mL throughout. Besides, in experiment [9], the “fold lower affinity than for human TNFα” value was ~200 fold. Moreover, the “Whole Blood IC50, TNFα-induced IL-8 production” value in experiment [10] worked out at 0.131 nM. For the same molecule, the “In vivo Potency (IC50), ALT, hTNFα/D-GalN hepatic injury in mice” value in experiment [12] was 50 nM. For the same molecule, the “In vivo Potency (IC50), human TNFα-induced IL-6 in mice” value in experiment [12] is 43 nM.
